This is an account of results in article PMC10770758, “Protocatechuate hydroxylase is a novel group A flavoprotein monooxygenase with a unique substrate recognition mechanism” (The Journal of Biological Chemistry, 2023).

Series [1] deals with O=C(O)c1ccc(O)c(O)c1. As to the kind of experiment: purified protein. The format is biochemical, Xylophilus ampelinus. Conditions: apparent, 0.25 mM NADPH, 20 mM Tris-HCl pH 7.9, 25 °C.
For series [2], the system named is O=C(O)c1ccc(O)cc1. As to the kind of experiment: purified protein. The format is biochemical, Xylophilus ampelinus. Conditions: apparent, 0.25 mM NADPH, 20 mM Tris-HCl pH 7.9, 25 °C.

On to XaPobA (Xylophilus ampelinus; W201Y), for which the Km was 5.0 ± 1.1 × 10^−1 mM in series [1] and 7.2 ± 2.2 × 10^−2 mM in series [2].
Consider XaPobA (Xylophilus ampelinus; C347T), for which the Km is on record as 3.2 ± 1.0 × 10^−1 mM in series [1] and 9.1 ± 3.4 × 10^−1 mM in series [2].
For XaPobA (Xylophilus ampelinus; W201A), in series [1], the Km is recorded as 6.5 ± 2.7 × 10^−1 mM.
Still for that read-out and setting: next, XaPobA (Xylophilus ampelinus; M210A): 9.6 ± 0.3 × 10^−1 mM.
